Measured values published in patent US20230399395A1 (SHANGHAI NOVAMAB BIOPHARMACEUTICALS, published 2023).

Columns and labels:
[1] = target: T1, human IL5 (human, UniProt P05113 20-134, biotinylated (IL5-biotin) in Examples 2, 5, 6, 9 and 11; site not stated); test: BLI (Fortebio Red96), 1:1 global fit
T1 construct: also called interleukin 5; IL5 antigen protein

[2] = target: T2, mouse IL5 (mouse, UniProt P04401 21-133); test: ELISA, coated IL5, anti-HA detection
T2 sequence (looked up): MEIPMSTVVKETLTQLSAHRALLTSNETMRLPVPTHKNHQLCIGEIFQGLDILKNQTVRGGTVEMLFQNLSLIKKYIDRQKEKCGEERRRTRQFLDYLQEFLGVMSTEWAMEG
Method: After washing 5 times with PBST, 300 μL 1% BSA was added to each well for blocking at room temperature for 2 hours. […] Then the plate was washed for 5 times with PBST, 100 μL diluted mouse anti-HA antibody (1:2000 dilution) was added and incubated for 1 hour at 37° C. After washing 5 times with PBST, 100 μL diluted alkaline phosphatase modified anti-mouse antibody (1:2000 dilution) was added and incubated at 37° C. for 1 hour. Then the plate was washed with PBST for 5 times, developing solution was added, and the absorption value was measured at 405 nm wavelength by a microplate reader.

[3] = target: T1, human IL5; test: cell-based or functional assay
[4] = target: T1, human IL5; test: Flow cytometry, blocking of IL5-biotin binding to HEK293F cells expressing IL5R
Method: Specifically, The HEK293F stable cells with high expression of IL5R were centrifuged at 1000 rpm for 5 min, and the supernatant was discarded. The cells were washed once with 5 mL PBS and then resuspended with 2 mL PBS. After counting, the cells were divided into a 96-well plate with 3×10⁵ cells per well. […] After centrifugation at 4° C. at 3000 rpm, 200 μL PBS was added to each well, and then centrifuged at 3000 rpm and 4° C. for 4 min after resuspension. The diluted SA-PE antibody (diluted at 0.3:100) was added and incubated at 4° C. for 20 min. After centrifugation at 4° C. for 4 min at 3000 rpm, the supernatant was discarded, and 200 μL PBS was added to each well to wash the cells twice. Then 200 μL PBS was added to resuspend the cells, transfer to a flow tube, and the PE signal of each sample was detected by flow cytometry.

B1: Nb66 (VHH)
VHH: QVQLQESGGGSVQAGGSLRLSCAASGYTVSSNMGWFRQAPGKEREGVAAIYPDGATYYADSVKGRFTISQDNAENTVYLQMNSLKPEDTAMYYCAADLAFNGLGTLALHGYWGQGTQVTVSS
notes: Camel nanobody, prokaryotic expression from the pMECS vector; It was detected with anti-HA antibody
Kd [1]: < 1 nM | binding result [2]: no binding

B2: Nb25 (VHH)
VHH: QVQLQESGGGSVQAGGSLRLSCAASEYTYSRYCMGWFRQVPGKEREGVATIDSDGSTSYADSVKGRFTISKDNAKNTLYLQMNSLKPEDTAMYYCAARYFYIATTGLRPCGEYEYNYWGQGTQVTVSS
notes: as for B1
Kd [1]: < 1 nM | binding result [2]: no binding

B3: bivalent biepitope IL5 nanobody HuNb66-HuNb21 expressed by yeast (VHH)
chain: EVQLQESGGGLVQPGGSLRLSCAASGYTVSSNMGWFRQAPGKEREGVAAIYPDGATYYADSVKGRFTISRDNSENTLYLQMNSLRAEDTAMYYCAADLAFNGLGTLALHGYWGQGTLVTVSSGGGGSGGGGSGGGGSGGGGSEVQLQESGGGLVQPGGSLRLSCAASGYPYSGDYCMGWFRQAPGKEREGVAAFYTGGGSTYYADSVKGRFTISRDNSKNTLYLQMNSLRAEDTAVYYCAADPWSVYGGSCGVKDPNPKAFNYWGQGTLVTVSS
notes: also called bivalent biepitopic antibody HuNb66-HuNb21
IC50 of inhibition of the proliferation of TF-1 cells induced by IL5 (CCK8, OD450) [3]: 0.0512 nM | IC50 [4]: 0.841 µg/mL

B4: Nb21 (VHH)
VHH: QVQLQESGGGSAQAGGSLKLSCVVSGYPYSGDYCMGWFRQAPGKEREGVAAFYTGGGSTYYADSVKGRFTTSQDNATSTFHLQMNSLKPEDTATYYCAADPWSVYGGSCGVKDPNPKAFNYWGQGTQVTVSS
notes: Camel nanobody, prokaryotic expression from the pMECS vector; also called Nb21-biotin
Kd [1]: < 1 nM | binding result [2]: no binding

B5: Nb92 (VHH)
VHH: QVQLQESGGGLVQPGGSLRLSCAASGFTFSNYYMSWVRQAPGKGLEWVSSISSDGSNTYYEDSVKGRFTISRDNANNTLYLQMNSLKSEDTALYHCATDLYDDSWYDHWGQGTQVTVSS
notes: as for B1
Kd [1]: < 1 nM | binding result [2]: no binding
